Bounds are passed on as bounds.

The target of test [1] is Mst1r (macrophage stimulating 1 receptor/RON kinase) on mouse erythroid progenitor cells (mouse) (UniProt Q62190). Put plainly: cell-based or functional assay.
Test [2] concerns the target IL-17Ra on mouse bone marrow erythroid progenitor cells (mouse) (UniProt Q60943). Put plainly: cell-based or functional assay.
Chain of UniProt Q60943 (Q60943 32-864): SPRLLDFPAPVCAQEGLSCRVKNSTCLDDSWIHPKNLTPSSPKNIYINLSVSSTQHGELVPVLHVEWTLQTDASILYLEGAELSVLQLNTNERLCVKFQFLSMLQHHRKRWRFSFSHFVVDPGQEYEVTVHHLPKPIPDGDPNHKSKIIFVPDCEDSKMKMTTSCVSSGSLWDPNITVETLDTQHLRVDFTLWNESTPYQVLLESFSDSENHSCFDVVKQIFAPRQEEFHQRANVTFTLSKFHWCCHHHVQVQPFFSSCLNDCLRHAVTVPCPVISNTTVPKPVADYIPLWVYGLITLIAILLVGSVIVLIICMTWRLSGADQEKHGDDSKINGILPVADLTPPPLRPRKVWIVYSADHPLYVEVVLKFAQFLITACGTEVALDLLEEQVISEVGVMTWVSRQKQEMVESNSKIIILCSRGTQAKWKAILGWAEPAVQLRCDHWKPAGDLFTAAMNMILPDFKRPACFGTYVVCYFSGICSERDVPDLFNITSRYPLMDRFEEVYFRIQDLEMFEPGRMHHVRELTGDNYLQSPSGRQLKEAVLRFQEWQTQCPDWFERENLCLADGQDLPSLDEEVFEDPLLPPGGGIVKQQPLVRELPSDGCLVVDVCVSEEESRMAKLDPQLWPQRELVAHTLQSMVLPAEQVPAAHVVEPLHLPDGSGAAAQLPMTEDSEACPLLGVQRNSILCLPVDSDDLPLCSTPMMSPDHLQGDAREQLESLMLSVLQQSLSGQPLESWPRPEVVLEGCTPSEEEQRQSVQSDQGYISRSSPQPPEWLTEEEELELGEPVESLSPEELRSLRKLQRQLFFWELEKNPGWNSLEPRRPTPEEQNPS

Chain of UniProt Q62190 (Q62190 24-1378): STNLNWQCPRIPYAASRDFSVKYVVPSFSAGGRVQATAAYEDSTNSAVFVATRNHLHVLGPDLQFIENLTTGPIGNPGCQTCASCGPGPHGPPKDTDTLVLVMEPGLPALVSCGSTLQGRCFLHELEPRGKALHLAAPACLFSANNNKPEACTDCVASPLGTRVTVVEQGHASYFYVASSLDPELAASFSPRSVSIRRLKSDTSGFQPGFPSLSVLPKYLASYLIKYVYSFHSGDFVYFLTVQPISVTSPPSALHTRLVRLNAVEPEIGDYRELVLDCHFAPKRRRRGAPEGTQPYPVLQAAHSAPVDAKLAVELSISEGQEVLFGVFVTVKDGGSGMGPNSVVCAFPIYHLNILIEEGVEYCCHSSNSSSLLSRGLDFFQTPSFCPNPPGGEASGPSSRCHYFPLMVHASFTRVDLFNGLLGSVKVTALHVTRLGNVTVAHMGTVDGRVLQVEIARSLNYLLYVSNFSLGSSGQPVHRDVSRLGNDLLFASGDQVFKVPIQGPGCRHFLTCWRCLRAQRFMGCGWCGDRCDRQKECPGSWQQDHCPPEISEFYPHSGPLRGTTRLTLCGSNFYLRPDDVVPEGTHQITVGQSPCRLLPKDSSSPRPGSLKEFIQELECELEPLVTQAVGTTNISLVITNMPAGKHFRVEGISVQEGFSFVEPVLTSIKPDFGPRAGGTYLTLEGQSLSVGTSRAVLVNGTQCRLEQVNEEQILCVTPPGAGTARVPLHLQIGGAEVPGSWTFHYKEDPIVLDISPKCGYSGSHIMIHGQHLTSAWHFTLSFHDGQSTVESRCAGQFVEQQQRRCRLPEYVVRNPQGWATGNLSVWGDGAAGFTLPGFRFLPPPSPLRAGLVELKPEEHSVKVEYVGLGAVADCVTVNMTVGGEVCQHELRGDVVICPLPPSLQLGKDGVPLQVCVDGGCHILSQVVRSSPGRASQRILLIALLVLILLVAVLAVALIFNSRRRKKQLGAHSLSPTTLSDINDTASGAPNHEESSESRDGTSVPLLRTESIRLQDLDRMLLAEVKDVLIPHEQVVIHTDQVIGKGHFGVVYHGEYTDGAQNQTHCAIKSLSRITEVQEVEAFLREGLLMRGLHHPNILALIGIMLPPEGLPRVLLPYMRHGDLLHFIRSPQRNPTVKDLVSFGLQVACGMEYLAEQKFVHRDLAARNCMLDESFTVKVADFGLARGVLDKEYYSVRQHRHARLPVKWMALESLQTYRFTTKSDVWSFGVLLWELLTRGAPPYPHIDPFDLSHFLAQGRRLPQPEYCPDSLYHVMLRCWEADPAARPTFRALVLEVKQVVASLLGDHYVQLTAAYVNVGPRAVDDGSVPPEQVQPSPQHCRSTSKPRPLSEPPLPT

As for “MSP/MST1 (R&D systems; CAT #6244-MS-025) (from UniProt P26928 19-716) (ligand)”, in test [1], the FL CFU-e colony formation at mildly elevated Epo (50 mU/ml) is over 2 fold.

B1: Recombinant Murine IL17 (IL-17A) (PeproTech) (ligand, UniProt Q62386 26-158, looked up)
chain: AAIIPQSSACPNTEAKDFLQNVKVNLKVFNSLGAKVSSRRPSDYLNRSTSPWTLHRNEDPDRYPSVIWEAQCRHQRCVNAEGKLDHHMNSVLIQQEILVLKREPESCPFTFRVEKMLVGVGCTCVASIVRQAA
In test [2], B1 showed an adult BM CFU-e colony formation at lower Epo (50 mU/ml) of 4 fold and an adult BM CFU-e colony formation at maximal levels of Epo of 50%.

The values are drawn from patent US20190358295A1.
